Reference: patent US20110135634A1, “METHODS OF INHIBITING INFECTION BY DIVERSE SUBTYPES OF DRUG-RESISTANT HIV-1” (priority 2007, published 2011)
“And” between values parts separate entries of the source, which are not always exact repeats. Equal values may be shown once. Read-outs that look alike come from different tables or passages of the source.

What was measured:
[1] = tested on: CCR5-tropic envelope-complemented luciferase-expressing HIV-1 reporter viruses; assay: PhenoSense HIV Entry Assay on U87-CD4/CCR5 cells; type: cell-based; parameters: key to Mean FC / FC: fold change in drug susceptibility vs DUAL (92HT594) reference envelope
From the text: Of these, 10 isolates were derived from viruses with high-level resistance to protease (PR) and/or reverse transcriptase (RT) inhibitors. Four additional isolates incorporated the major enfuvirtide-conferring mutations in an HIV-1JR-CSF envelope background. […] EC50 values for test isolates were divided by the EC50 for a well-characterized reference virus (HIV-192HT594) to yield fold-change (FC) values.
A PhenoSense™ HIV Entry assay (Whitcomb et al, Antimicrobial Agents and Chemotherapy, 51:566, 2007) has been developed by modifying the PhenoSense HIV assay and is illustrated schematically in FIGS. 21 and 22. The assay uses nucleic acid amplification (RT-PCR) to derive HIV envelope sequences (gp160) from HIV(+) patient plasma samples or other sources. Amplified envelope sequences were incorporated into a proprietary expression vector (pCXAS) using conventional cloning methods. Envelope expression vectors were prepared as large pools of sequences (>200) in order to assure that the diversity of sequences accurately represents the diversity of viral quasispecies in the specimen at the time of sample collection. Recombinant HIV-1 stocks expressing virus envelope proteins were prepared by co-transfecting HEK293 cells with a HIV-1 genomic viral vector and an appropriate envelope expression vector. The HIV-1 genomic vector is replication defective and contains a luciferase expression cassette within a deleted region of the HIV envelope gene. Following transfection, recombinant virus particles were harvested and used to inoculate two U87 cell lines expressing CD4 and the CCR5 or CXCR4 co-receptor (U87-CD4/CCR5 and U87-CD4/CXCR4 cells, respectively). […] Drug susceptibility was measured by comparing the amount of luciferase activity produced in the presence of entry inhibitors to the amount of luciferase activity produced in absence of entry inhibitors. Entry inhibitor activity was evaluated at ten serial drug concentrations. Data were analyzed by plotting percent inhibition of luciferase activity vs. log10 drug concentration.
The 31 viruses used in this study were CCR5-tropic and were selected from Monogram Biosciences' Specimen Library. The panel included four of each subtypes A, B, C, D, F, and G viruses and three subtype J virus (Table 17). Of the 31 viruses examined, 17 were wildtype (WT), 10 were resistant to protease (PR) and/or reverse transcriptase (RT) inhibitors and 4 were enfuvirtide-resistant site-directed mutants (SDMs). The enfuvirtide-resistant viruses included envelopes with amino acid substitutions at positions 36-38 (GIV motif) and 43 within heptad repeat 1 (HR-1) and were introduced by site-directed mutagenesis into gp41 transmembrane (TM) sequence of the JRCSF envelope, as shown in Table 16.
DUAL (92HT594) is an envelope expression vector derived from a drug-naive reference virus that can efficiently infect cells expressing both the CD4 receptor and the CCR5 or CXCR4 co-receptor molecules on the cell surface. The DUAL envelope control was used to determine the fold changes in drug susceptibility of samples evaluated on U87-CD4/CCR5 cells. The DUAL control was also tested in each assay batch to evaluate and monitor assay performance over time.
JRCSF is an envelope expression vector derived from a drug-naive reference virus that can efficiently infect cells expressing both the CD4 receptor and the CCR5 co-receptor molecules on the cell surface.
Susceptibility data were analyzed by plotting percent inhibition of luciferase activity vs. log10 drug concentration.

[2] = tested on: HIV-1 (CCR5-tropic virus); type: in vivo; conditions: for Mean log10 HIV RNA change: Day 10 post-treatment
From the text: The efficacy data collected during the study were changes in viral load and CD4 counts over time. The safety data collected during the study were serious adverse events (SAEs)/adverse events (AEs) and changes in laboratory parameters (hematology, chemistry), physical exam, viral tropism and ECGs over time.
All patients were screened prior to the study for the presence of virus that utilizes only CCR5 as the entry coreceptor, i.e., CCR5-tropic virus.
The primary efficacy endpoint was the reduction in plasma HIV RNA level as measured by the Roche Amplicor™ Assay. The primary efficacy endpoint is the maximum change from baseline in viral load, defined as HIV-1 copies/ml, as measured by the Roche Amplicor™ Assay.

[3] = tested on: primary R5 HIV-1 isolates JR-FL and Case C 1/85 (CC1/85); assay: In vitro resistance selection and susceptibility testing on PBMC; type: cell-based; conditions: p24 ELISA
Method: For susceptibility testing, viruses were cultured in vitro on stimulated PBMC. In the presence and absence of serially diluted drug, and the extent of viral replication was determined by p24 ELISA.

[4] = biological target: T1, CCR5 on CEM.NKR-CCR5 cells (Homo sapiens, UniProt P51681); assay: Competition binding: inhibition of PRO 140-PE binding; conditions: based on percent cells gated; 5 nM PRO 140-PE
T1 construct: host or cells: CEM.NKR-CCR5 (transduced human T cell leukemia line)
Method: Azide was added to block CCR5 internalization during the assay.

CCR5 lymphocytes = type: in vivo, human
Method: Whole blood specimens were combined separately with the indicated phycoerythrin-labeled anti-CCR5 antibodies or with appropriate isotype-control antibodies. Erythocytes were lysed and leukocytes were stabilized using the ImmunoPrep Reagent System (Beckman Coulter), and the cells were analyzed on a TQ Prep™ flow cytometry workstation (Beckman Coulter). Data were expressed as the percent of CCR5 cells relative to all cells gated in the analysis.
For up to 60 days post-treatment, at the times indicated in FIG. 6, blood was collected and analyzed for CCR5 lymphocyte levels.
Background binding of isotype control antibodies was unchanged.

T1 sequence (P51681 whole entry): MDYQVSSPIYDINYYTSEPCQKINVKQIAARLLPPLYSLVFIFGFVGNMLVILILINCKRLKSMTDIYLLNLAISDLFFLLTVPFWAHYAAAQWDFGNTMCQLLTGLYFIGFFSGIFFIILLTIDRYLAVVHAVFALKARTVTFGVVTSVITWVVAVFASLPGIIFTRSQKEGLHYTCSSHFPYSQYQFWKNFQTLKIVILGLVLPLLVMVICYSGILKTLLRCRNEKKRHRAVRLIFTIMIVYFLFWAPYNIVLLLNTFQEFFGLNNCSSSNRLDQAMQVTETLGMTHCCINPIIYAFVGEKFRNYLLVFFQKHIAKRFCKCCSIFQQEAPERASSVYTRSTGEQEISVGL

B1: PRO 140: humanized IgG4,κ anti-CCR5 mAb being developed for HIV-1 therapy (antibody, chains of the INN, looked up, V domains shown)
VH: EVQLVESGGGLVKPGGSLRLSCAASGYTFSNYWIGWVRQAPGKGLEWIGDIYPGGNYIRNNEKFKDKTTLSADTSKNTAYLQMNSLKTEDTAVYYCGSSFGSNYVFAWFTYWGQGTLVTVSS
VL: DIVMTQSPLSLPVTPGEPASISCRSSQRLLSSYGHTYLHWYLQKPGQSPQLLIYEVSNRFSGVPDRFSGSGSGTDFTLKISRVEAEDVGVYYCSQSTHVPLTFGQGTKVEIK
median IC50 ([1]; 27 viruses representing different genetic subtypes): 0.44 µg/mL | range of FC values ([1]; 31 test viruses, relative to HIV-1 92HT594): 0.28-4.1 | mean EC50 ([1]; all 31 test viruses): 0.50 ± 0.27 µg/mL | Mean FC ([1]; all 31 test viruses, relative to reference virus HIV-1 92HT594): 1.5±0.8 | FC ([1]; envelopes from PR/RT-resistant viruses): 1.4±1.0 | mean IC50 ([1]; four enfuvirtide-resistant SDMs): 0.82 µg/mL | IC50, Average ([1]; panel of 31 viruses): 0.5096 µg/mL | IC50, Max ([1]; panel of 31 viruses): 1.4329 µg/mL | IC50, Median ([1]; panel of 31 viruses): 0.4418 µg/mL | IC50, Min ([1]; panel of 31 viruses): 0.0955 µg/mL | Mean FC ([1]; subtype A): 1.0±0.4 | Mean FC ([1]; subtype B): 1.5±0.2 | Mean FC ([1]; subtype C): 0.94±0.5 | Mean FC ([1]; subtype D): 1.4±0.6 | Mean FC ([1]; subtype F): 1.5±0.7 | Mean FC ([1]; subtype G): 1.8±1.6 | Mean FC ([1]; subtype J): 1.2±0.4 | individual reductions of viral load ([2]; 2.0 mg/kg and 5.0 mg/kg dose levels): up to 2.5 log10 and ≤ 99.7% | AUC viral load ([2]; 5 mg/kg): significantly decreased | Maximum decrease of viral load at any time ([2]; 5 mg/kg): −1.8 log | Patients with <400 copies/mL (anytime) ([2]; 5 mg/kg): 4/10 | Patients with >1 log decrease (anytime) ([2]; 5 mg/kg): 10/10 | time of return of viral load to baseline ([2]; 5.0 mg/kg cohort): approximately 30 days | time to suppression of mean viral load by 1.0 log10 (90%) ([2]; 5.0 mg/kg cohort): within four days | time viral load persisted at or below the 1.0 log10 level of reduction ([2]; 5.0 mg/kg cohort): two to three weeks | mean increase in CD4+ lymphocytes ([2]; 5 mg/kg, day 8): 129 cells/μL | Viral load decrease ([2]; 5 mg/kg, day 22): −0.73 | Mean log10 HIV RNA change ([2]; 0.5 mg/kg): −0.37 log10 | Mean log10 HIV RNA change ([2]; 2.0 mg/kg): −1.04 log10 | Mean log10 HIV RNA change ([2]; 5.0 mg/kg): −1.70 log10 | response rate (percentage of patients with a ≧1 log10 decrease in HIV RNA at any time) ([2]; highest dose cohort): 100% | inhibition of SCH-D escape mutants [3]: efficiently inhibited | EC90 [4]: 17 nM | overall number of CCR5 lymphocytes as measured by CTC5 binding (CCR5 lymphocytes; in vivo, 2 mg/kg): no decrease | time CCR5 lymphocytes effectively coated without cellular depletion (CCR5 lymphocytes; single 2 mg/kg dose): two weeks | time cells remain partially coated (CCR5 lymphocytes; single 2 mg/kg dose): > 4 weeks | time cells remain partially coated (CCR5 lymphocytes; single 5 mg/kg dose): > 60 days
